In paper PMC5886804 (Nature, 2018):

Tests used:
[1] = biological target: Mouse TPC1 (two-pore channel 1) (mouse) (UniProt Q9EQJ0); test: cryo-EM structure
[2] = biological target: MmTPC1 Leu11Ala/Ile12Ala (plasma membrane-targeting, considered as the wild type channel) (Mus musculus, UniProt Q9EQJ0, I12A/L11A/R540Q); test: inside-out patch clamp, HEK293 cells; type: cell-based

| stoichiometry N [1] | EC50 [2] [nM] | Molecule |
| --- | --- | --- |
| 2 | – | Mouse TPC1 (two-pore channel 1) (from UniProt Q9EQJ0-1 1-817) (natural protein) |
| – | ~145 | CCCCCCCC(=O)OC[C@H](COP(=O)(O)O[C@@H]1[C@H](O)[C@H](OP(=O)(O)O)[C@@H](O)[C@H](OP(=O)(O)O)[C@H]1O)OC(=O)CCCCCCC [PtdIns(3,5)P2] |
